Experimental data published in patent US20260258394A1, “PLANT ENZYMES WITH IMPROVED ACTIVITY” (MAX-PLANCK-GESELLSCHAFT ZUR FÖRDERUNG DER WISSENSCHAFTEN …, priority 2023, published 2026).

Assays:
[1] = tested on: Glycolyl-CoA Carboxylase GCC M5 (Methylorubrum extorquens propionyl-CoA carboxylase variant L100S, Y143H, D407I, I450V, W502R; β-subunit SEQ ID NO: 1 …); conditions: cited from earlier work
[2] = biological target: T1, Glycolyl-CoA Carboxylase GCC M5 variant G20R (Methylorubrum extorquens propionyl-CoA carboxylase variant G20R, L100S, Y143H, D407I, I450V, W502R); β-subunit SEQ (Methylorubrum extorquens, UniProt C5AP75, D407I/G20R/I450V/L100S/W502R/Y143H); experiment: Kinetic characterization of GCC M5 G20R (Vmax, kcat, App. KM) using LC-MS assays; format: biochemical
T1 construct: overexpressed in E. coli BL21-birA with M. extorquens biotin ligase
T1 sequence (C5AP75 1-510 G20R/L100S/Y143H/D407I/I450V/W502R): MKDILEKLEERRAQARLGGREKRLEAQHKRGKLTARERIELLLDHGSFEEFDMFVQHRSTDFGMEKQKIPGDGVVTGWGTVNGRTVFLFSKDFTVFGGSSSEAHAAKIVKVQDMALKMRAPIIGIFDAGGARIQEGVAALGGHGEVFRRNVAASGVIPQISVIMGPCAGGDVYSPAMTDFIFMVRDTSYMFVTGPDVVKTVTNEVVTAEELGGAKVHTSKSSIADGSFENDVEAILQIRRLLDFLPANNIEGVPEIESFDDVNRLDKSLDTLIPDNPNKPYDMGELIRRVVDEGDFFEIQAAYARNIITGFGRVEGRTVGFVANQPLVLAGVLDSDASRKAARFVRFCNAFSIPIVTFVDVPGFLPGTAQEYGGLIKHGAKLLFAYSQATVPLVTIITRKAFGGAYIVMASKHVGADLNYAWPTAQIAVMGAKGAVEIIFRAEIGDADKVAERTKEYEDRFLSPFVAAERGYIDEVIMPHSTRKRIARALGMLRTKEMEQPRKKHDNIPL
T1 sequence (C5AWU5 1-667 partner): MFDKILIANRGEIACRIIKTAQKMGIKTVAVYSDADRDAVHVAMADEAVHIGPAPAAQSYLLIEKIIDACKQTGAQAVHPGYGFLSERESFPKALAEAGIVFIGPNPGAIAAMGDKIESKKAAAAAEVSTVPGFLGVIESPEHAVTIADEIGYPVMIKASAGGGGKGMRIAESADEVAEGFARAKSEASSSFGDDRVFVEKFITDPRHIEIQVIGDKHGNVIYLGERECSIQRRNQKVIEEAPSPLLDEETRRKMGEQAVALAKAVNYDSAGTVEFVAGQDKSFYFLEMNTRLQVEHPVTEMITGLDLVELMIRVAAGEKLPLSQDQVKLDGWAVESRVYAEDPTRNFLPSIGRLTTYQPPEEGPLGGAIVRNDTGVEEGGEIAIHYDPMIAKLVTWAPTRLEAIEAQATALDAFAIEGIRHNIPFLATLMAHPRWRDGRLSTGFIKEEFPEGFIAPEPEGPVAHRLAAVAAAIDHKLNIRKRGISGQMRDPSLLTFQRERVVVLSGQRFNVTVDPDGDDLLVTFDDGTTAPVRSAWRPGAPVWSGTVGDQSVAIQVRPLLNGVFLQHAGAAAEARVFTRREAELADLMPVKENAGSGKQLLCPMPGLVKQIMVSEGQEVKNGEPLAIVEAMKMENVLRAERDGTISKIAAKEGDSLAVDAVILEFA
From the text: The carboxylation activity can be measured as catalytic rate of carboxylation of glycolyl-CoA (conversion of glycolyl-CoA into tartronyl-CoA) (Scheffen, loc. cit.). Catalytic rate (kcat) is here defined as the maximum formation rate of tartronyl-CoA out of glycolyl-CoA and HCO3^−. It describes how many mol of the substrate are converted per time and per mol of enzyme. It can only be approximated as it requires 100% substrate saturation of the active sites. Therefore, turnover rates at different initial substrate concentrations can be measured to compute the catalytic rate with the Michaelis-Menten equation.

[3] = substrate: CC(C)(COP(=O)(O)OP(=O)(O)OC[C@H]1O[C@@H](n2cnc3c(N)ncnc32)[C@H](O)[C@@H]1OP(=O)(O)O)[C@@H](O)C(=O)NCCC(=O)NCCSC(=O)CO; experiment: as above; format: biochemical, Methylorubrum extorquens; conditions: other: G20R; means±s.d., n=18, nonlinear regression
From the text: (§1) The data represent means±s.d., as determined from n=18 independent measurements using nonlinear regression.

[4] = substrate: CC(=O)SCCNC(=O)CCNC(=O)[C@H](O)C(C)(C)COP(=O)(O)OP(=O)(O)OC[C@H]1O[C@@H](n2cnc3c(N)ncnc32)[C@H](O)[C@@H]1OP(=O)(O)O; experiment: as above; format: biochemical, Methylorubrum extorquens; conditions: other: G20R; means±s.d., n=18, nonlinear regression
From the text: as §1

[5] = substrate: CC(C)(COP(=O)(O)OP(=O)(O)OC[C@H]1O[C@@H](n2cnc3c(N)ncnc32)[C@H](O)[C@@H]1OP(=O)(O)O)[C@@H](O)C(=O)NCCC(=O)NCCSC(=O)CO; experiment: Kinetic characterization of GCC M5 S100N (Vmax, kcat, App. KM) using LC-MS assays; format: biochemical, Methylorubrum extorquens; conditions: other: S100N; means±s.d., n=18, nonlinear regression
From the text: as §1

[6] = substrate: CC(=O)SCCNC(=O)CCNC(=O)[C@H](O)C(C)(C)COP(=O)(O)OP(=O)(O)OC[C@H]1O[C@@H](n2cnc3c(N)ncnc32)[C@H](O)[C@@H]1OP(=O)(O)O; experiment: as above; format: biochemical, Methylorubrum extorquens; conditions: other: S100N; means±s.d., n=18, nonlinear regression
From the text: as §1

[7] = biological target: T2, GCC M5_G20R (M. extorquens) β-subunit G20R, L100S, Y143H, D407I, I450V, W502R mutations
T2 chain: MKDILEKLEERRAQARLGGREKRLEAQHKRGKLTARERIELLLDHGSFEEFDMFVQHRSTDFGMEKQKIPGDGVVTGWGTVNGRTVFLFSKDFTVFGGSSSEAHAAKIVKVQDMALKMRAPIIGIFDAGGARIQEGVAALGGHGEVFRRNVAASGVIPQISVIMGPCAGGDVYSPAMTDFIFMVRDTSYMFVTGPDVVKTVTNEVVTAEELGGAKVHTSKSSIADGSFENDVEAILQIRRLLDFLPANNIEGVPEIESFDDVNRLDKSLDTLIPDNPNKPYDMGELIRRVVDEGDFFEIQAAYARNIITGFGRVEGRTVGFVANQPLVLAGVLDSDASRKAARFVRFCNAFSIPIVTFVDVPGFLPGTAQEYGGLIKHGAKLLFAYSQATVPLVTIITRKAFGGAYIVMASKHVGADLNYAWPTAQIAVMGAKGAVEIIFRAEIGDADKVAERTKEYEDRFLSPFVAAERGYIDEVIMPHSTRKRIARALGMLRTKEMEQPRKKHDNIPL

[8] = means±s.d., reference Scheffen loc. cit.

## CC(C)(COP(=O)(O)OP(=O)(O)OC[C@H]1O[C@@H](n2cnc3c(N)ncnc32)[C@H](O)[C@@H]1OP(=O)(O)O)[C@@H](O)C(=O)NCCC(=O)NCCSC(=O)CO [Glycolyl-CoA, glycolyl-CoA]
[1]; Scheffen, Nat. Catal. 4, 105-115, 2021
  catalytic rate of carboxylation of glycolyl-CoA: 5.6 ± 0.3 s⁻¹
[1]; means±s.d., reference Scheffen loc. cit., read-out: App. KM
  Km: 150 ± 30 µM
[1]; [8]
  Vmax: 2590 ± 130 nmol/min/mg
  kcat: 5.6 ± 0.3 s⁻¹
[1]; reference Scheffen loc. cit.
  kcat/KM: 36300 M⁻¹ s⁻¹
[2]; G20R versus GCC M5
  Vmax, fold higher than GCC M5: 1.8 -fold
[2]; G20R versus GCC M5, result in words
  apparent KM value for glycolyl-CoA (change versus GCC M5): slightly increased
[2]; G20R, unit not given
  kcat: 9.8±0.2

B1: Glycolyl-CoA Carboxylase GCC M5 variant G20R (Methylorubrum extorquens propionyl-CoA carboxylase variant G20R, L100S, Y143H, D407I, I450V, W502R; β-subunit SEQ … (protein)
chain: MKDILEKLEERRAQARLGGREKRLEAQHKRGKLTARERIELLLDHGSFEEFDMFVQHRSTDFGMEKQKIPGDGVVTGWGTVNGRTVFLFSKDFTVFGGSSSEAHAAKIVKVQDMALKMRAPIIGIFDAGGARIQEGVAALGGHGEVFRRNVAASGVIPQISVIMGPCAGGDVYSPAMTDFIFMVRDTSYMFVTGPDVVKTVTNEVVTAEELGGAKVHTSKSSIADGSFENDVEAILQIRRLLDFLPANNIEGVPEIESFDDVNRLDKSLDTLIPDNPNKPYDMGELIRRVVDEGDFFEIQAAYARNIITGFGRVEGRTVGFVANQPLVLAGVLDSDASRKAARFVRFCNAFSIPIVTFVDVPGFLPGTAQEYGGLIKHGAKLLFAYSQATVPLVTIITRKAFGGAYIVMASKHVGADLNYAWPTAQIAVMGAKGAVEIIFRAEIGDADKVAERTKEYEDRFLSPFVAAERGYIDEVIMPHSTRKRIARALGMLRTKEMEQPRKKHDNIPL
notes: overexpressed in E. coli BL21-birA with M. extorquens biotin ligase
[3]
  Km: 270 ± 20 µM
  Vmax: 4.52 µmol/min/mg
  kcat: 9.8 ± 0.2 s⁻¹
  kcat/Km: 36400 M⁻¹ s⁻¹
[4]
  Km: 380 ± 100 µM
  Vmax: 2.25 µmol/min/mg
  kcat: 4.9 ± 0.4 s⁻¹
  kcat/Km: 13000 M⁻¹ s⁻¹

B2: Glycolyl-CoA Carboxylase GCC M5 variant S100N (= L100N; Methylorubrum extorquens propionyl-CoA carboxylase variant L100N, Y143H, D407I, I450V, W502R; β-subunit … (protein)
chain: MKDILEKLEERRAQARLGGGEKRLEAQHKRGKLTARERIELLLDHGSFEEFDMFVQHRSTDFGMEKQKIPGDGVVTGWGTVNGRTVFLFSKDFTVFGGSNSEAHAAKIVKVQDMALKMRAPIIGIFDAGGARIQEGVAALGGHGEVFRRNVAASGVIPQISVIMGPCAGGDVYSPAMTDFIFMVRDTSYMFVTGPDVVKTVTNEVVTAEELGGAKVHTSKSSIADGSFENDVEAILQIRRLLDFLPANNIEGVPEIESFDDVNRLDKSLDTLIPDNPNKPYDMGELIRRVVDEGDFFEIQAAYARNIITGFGRVEGRTVGFVANQPLVLAGVLDSDASRKAARFVRFCNAFSIPIVTFVDVPGFLPGTAQEYGGLIKHGAKLLFAYSQATVPLVTIITRKAFGGAYIVMASKHVGADLNYAWPTAQIAVMGAKGAVEIIFRAEIGDADKVAERTKEYEDRFLSPFVAAERGYIDEVIMPHSTRKRIARALGMLRTKEMEQPRKKHDNIPL
notes: as for B1
[5]
  Km: 320 ± 50 µM
  Vmax: 0.79 µmol/min/mg
  kcat: 1.7 ± 0.1 s⁻¹
  kcat/Km: 5360 M⁻¹ s⁻¹
[6]
  Km: 630 ± 100 µM
  Vmax: 0.174 µmol/min/mg
  kcat: 0.38 ± 0.03 s⁻¹
  kcat/Km: 596 M⁻¹ s⁻¹

B3: PCC WT (M. extorquens) α-subunit (protein)
chain: MFDKILIANRGEIACRIIKTAQKMGIKTVAVYSDADRDAVHVAMADEAVHIGPAPAAQSYLLIEKIIDACKQTGAQAVHPGYGFLSERESFPKALAEAGIVFIGPNPGAIAAMGDKIESKKAAAAAEVSTVPGFLGVIESPEHAVTIADEIGYPVMIKASAGGGGKGMRIAESADEVAEGFARAKSEASSSFGDDRVFVEKFITDPRHIEIQVIGDKHGNVIYLGERECSIQRRNQKVIEEAPSPLLDEETRRKMGEQAVALAKAVNYDSAGTVEFVAGQDKSFYFLEMNTRLQVEHPVTEMITGLDLVELMIRVAAGEKLPLSQDQVKLDGWAVESRVYAEDPTRNFLPSIGRLTTYQPPEEGPLGGAIVRNDTGVEEGGEIAIHYDPMIAKLVTWAPTRLEAIEAQATALDAFAIEGIRHNIPFLATLMAHPRWRDGRLSTGFIKEEFPEGFIAPEPEGPVAHRLAAVAAAIDHKLNIRKRGISGQMRDPSLLTFQRERVVVLSGQRFNVTVDPDGDDLLVTFDDGTTAPVRSAWRPGAPVWSGTVGDQSVAIQVRPLLNGVFLQHAGAAAEARVFTRREAELADLMPVKENAGSGKQLLCPMPGLVKQIMVSEGQEVKNGEPLAIVEAMKMENVLRAERDGTISKIAAKEGDSLAVDAVILEFA
[7]
  Specific activity (nmol min^-1 mg^-1) (nmol min^-1 mg^-1): 2600
  Vmax [nmol min^-1 mg^-1], glycolyl-CoA (nmol min^-1 mg^-1): 4520
  kcat [s^-1], glycolyl-CoA: 9.8 s⁻¹
